One experiment addresses GST-RAB40C (UniProt Q96S21).
The target of another experiment is GST-H-Ras (UniProt P01112).

The source of these data is article PMC5689619.

For “GST-GAP R385L (DAB2IP GAP domain, catalytically defective mutant) (domain or fragment)”, the Kcat/KM ratio (catalytic efficiency) of GAP-stimulated GTP hydrolysis, release of inorganic phosphate with GST-RAB40C turned out to be 66; with GST-H-Ras it was 102.
For “GST-GAP (DAB2IP GAP domain) (domain or fragment)” the same measures were 114 and 229.
